We go through two molecules from US20130039933A1 (UNIVERSITY OF MIAMI, published 2013).

The target in assay [1] is T1, BD-hSTING-C (carboxyl region of STING, amino acids 173-379, fused to the binding domain of yeast GAL4) (yeast; human, UniProt P04386 1-147).
T1 construct: Yeast two-hybrid bait; also called pGBK-T7-hSTING-C; pGBKT7-STING C-terminal
Put plainly: yeast two-hybrid screen.

In assay [2] the target is T1, BD-hSTING-C (carboxyl region of STING, …). Nature of the assay: yeast two-hybrid, high stringency plates (-Trp, -Leu, -Ade, -His).

B1: Full length DAD1 (defender against apoptotic cell death) fused to the GAL4 activation domain (other, human, UniProt P61803 1-113, looked up, not shown: large carriers)
chain: MSASVVSVISRFLEEYLSSTPQRLKLLDAYLLYILLTGALQFGYCLLVGTFPFNSFLSGFISCVGSFILAVCLRIQINPQNKADFQGISPERAFADFLFASTILHLVVMNFVG
notes: Yeast two-hybrid prey; also called DAD I
Turning to B1, in assay [1], the binding result is reported as “binds”.

B2: control vector (AD) (other, yeast, UniProt P04386 768-881, looked up)
chain: ANFNQSGNIADSSLSFTFTNSSNGPNLITTQTNSQALSQPIASSNVHDNFMNNEITASKIDDGNNSKPLSPGWTDQTAYNAFGITTGMFNTTTMDDVYNYLFDDEDTPPNPKKE
notes: Yeast two-hybrid negative control
On to B2, for which, in assay [2], the binding result is “no binding”.
